Kd data for 2 substances are collected here from patent CN104774268A.

The target of assay [1] is EGFR on EGFR-positive cells (HT29; HCT116; MDA-MB-453) (human) (UniProt P00533). The assay can be described thus: flow cytometry on HT29 cells, MFI titration fitted in GraphPad Prism. (A flow cytometer gives signals particle by particle.)
The target of assay [2] is CD3 on CD3-positive Jurkat cells (human). The assay can be described thus: flow cytometry on Jurkat cells, MFI titration fitted in GraphPad Prism.

The Kd is the equilibrium constant for the complex coming apart. In the case of “EGFR×CD3 MSBODY M1003 (monovalent unit from Vectibix, single-chain unit anti-CD3 L2K ScFv-Fc) (bispecific antibody)”, the Kd in assay [1] came to 0.65 nM; in assay [2], 14.4 nM.
For “EGFR×CD3 MSBODY M1001 (monovalent unit from Erbitux, single-chain unit anti-CD3 L2K ScFv-Fc) (bispecific antibody)”, in that order: 0.65 nM and 8.73 nM.
